Laboratory results published in patent US20250346644A1 (LATTICON SUZHOU BIOPHARMACEUTICALS, published 2025).
Like-named read-outs stand apart in the source and are kept apart here.

Tests used:
mIL2-his [1] = biological target: T1, mIL2-his (mouse, UniProt P04351 21-169); experiment: BLI ForteBio, Ab on Protein A sensor
T1 construct: also called wild-type mouse IL-2 (with a his-tag); not shown: his-tag
T1 sequence (looked up): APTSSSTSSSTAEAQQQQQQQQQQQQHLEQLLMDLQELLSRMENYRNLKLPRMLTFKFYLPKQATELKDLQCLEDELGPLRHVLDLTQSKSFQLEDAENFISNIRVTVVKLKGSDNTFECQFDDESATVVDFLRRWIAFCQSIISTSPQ

hIL2-DM-his [2] = biological target: T2, hIL2-DM-his (human, UniProt P60568 21-153); experiment: BLI ForteBio, Ab on Protein A sensor
T2 construct: expressed in ExpiCHO-S cells, nickel-column purified; also called hIL-2 mutein containing two point mutations K64G and N90R (with a his-tag); not shown: his-tag

hIL2-TM-his = biological target: T3, hIL2-TM-his (human, UniProt P60568 21-153); experiment: BLI ForteBio, Ab on Protein A sensor
T3 construct: also called hIL-2 mutein containing three point mutations K64G, N90R and M104E (with a his-tag); not shown: his-tag
T3 chain: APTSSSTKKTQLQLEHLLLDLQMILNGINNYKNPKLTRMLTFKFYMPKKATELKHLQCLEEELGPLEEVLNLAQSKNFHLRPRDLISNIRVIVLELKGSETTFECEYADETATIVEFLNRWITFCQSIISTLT

hIL2-DM-his [3] = biological target: T2, hIL2-DM-his; experiment: BLI ForteBio, Ab on Protein A sensor; remark: listed apart in the source
Target sequence in this assay (P60568 21-153 K84G/N110R): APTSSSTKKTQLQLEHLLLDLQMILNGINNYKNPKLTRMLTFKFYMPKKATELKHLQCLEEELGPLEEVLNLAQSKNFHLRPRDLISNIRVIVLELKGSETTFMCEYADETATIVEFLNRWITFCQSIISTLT

mIL2-his [4] = biological target: T1, mIL2-his; experiment: ELISA, antibody captured by anti-human IgG, mIL2-his titrated
hIL2-his = biological target: T4, hIL2-his (human, UniProt P60568 21-153); experiment: ELISA (section 2.1.1): antibody (13.3 nM) captured on coated goat anti-human IgG, hIL2-his titrated (the x axis is the antigen concentration), HRP anti-6xHis
T4 construct: the construct is not described further; not shown: his-tag

Kd (mIL2-his [1]): 0.001 µM
koff (mIL2-his [1]): 0.00018 s⁻¹
kon (mIL2-his [1]): 179000 M⁻¹ s⁻¹
Kd (hIL2-DM-his [2]): 0.0453 µM
koff (hIL2-DM-his [2]): 0.01 s⁻¹
kon (hIL2-DM-his [2]): 222000 M⁻¹ s⁻¹
Kd (hIL2-TM-his): 0.024 µM
koff (hIL2-TM-his): 0.00569 s⁻¹
kon (hIL2-TM-his): 237000 M⁻¹ s⁻¹
Binding Response (nm) (hIL2-DM-his [3]): 0.133 nm
Kd (hIL2-DM-his [3]): 0.0469 µM
koff (hIL2-DM-his [3]): 0.0193 s⁻¹
kon (hIL2-DM-his [3]): 413000 M⁻¹ s⁻¹
EC50 (mIL2-his [4]): 0.0183 mg/L
binding result (hIL2-his): no binding (tested: 2 µg/mL)
B1: hS4B6-H6K3 (antibody, V domains shown)
VH: QVQLVQSGAEVKKPGATVKISCKVSGDTITAYYLHWVRQAPGQGLEWIGRIDPEDDSTKYAENFKNRVTITADTSTNTAYMELSSLRSEDTAVYYCTTVTFYYSRELRWFAYWGQGTLVTVSS
VL: DIVLTQSPATLSLSPGERATLSCQASQDIGNYLSWYQQKPGQAPRLLIYSATSLADGIPARFSGSRSGTDYTLTISSLEPEDFAVYYCLQHYSTPYTFGQGTKLEIK
notes: full antibody
